Data on 5 variants can be found in publication PMC12000434 (2025).

B1: FLAG-NDP52^WT [human] / HA-LC3C [human] (parent complex)
chain 1: MEETIKDPPTSAVLLDHCHFSQVIFNSVEKFYIPGGDVTCHYTFTQHFIPRRKDWIGIFRVGWKTTREYYTFMWVTLPIDLNNKSAKQQEVQFKAYYLPKDDEYYQFCYVDEDGVVRGASIPFQFRPENEEDILVVTTQGEVEEIEQHNKELCKENQELKDSCISLQKQNSDMQAELQKKQEELETLQSINKKLELKVKEQKDYWETELLQLKEQNQKMSSENEKMGIRVDQLQAQLSTQEKEMEKLVQGDQDKTEQLEQLKKENDHLFLSLTEQRKDQKKLEQTVEQMKQNETTAMKKQQELMDENFDLSKRLSENEIICNALQRQKERLEGENDLLKRENSRLLSYMGLDFNSLPYQVPTSDEGGARQNPGLAYGNPYSGIQESSSPSPLSIKKCPICKADDICDHTLEQQQMQPLCFNCPICDKIFPATEKQIFEDHVFCHSL
chain 2: MPPPQKIPSVRPFKQRKSLAIRQEEVAGIRAKFPNKIPVVVERYPRETFLPPLDKTKFLVPQELTMTQFLSIIRSRMVLRATEAFYLLVNNKSLVSMSATMAEIYRDYKDEDGFVYMTYASQETFG

Variants of B1 are the subject of one assay. The experiment in a line: co-immunoprecipitation (anti-HA beads), Western blot densitometry; lysates of SH-SY5Y cells; three independent experiments; parent: 100; read off a plot. A general note: A western blot detects proteins with antibodies after separation by electrophoresis.
As for chain 1 MEETIKDPPTSAVLLDHCHFSQVIFNSVEKFYIPGGDVTCHYTFTQHFIPRRKDWIGIFRVGWKTTREYYTFMWVTLPIDLNNKSAKQQEVQFKAYYLPKDDEYYQFCYVDEDGVVRGASIPFQFRPENEEDILVSTTQEEVEEIEQHNKELCKENQELKDSCISLQKQNSDMQAELQKKQEELETLQSINKKLELKVKEQKDYWETELLQLKEQNQKMSSENEKMGIRVDQLQAQLSTQEKEMEKLVQGDQDKTEQLEQLKKENDHLFLSLTEQRKDQKKLEQTVEQMKQNETTAMKKQQELMDENFDLSKRLSENEIICNALQRQKERLEGENDLLKRENSRLLSYMGLDFNSLPYQVPTSDEGGARQNPGLAYGNPYSGIQESSSPSPLSIKKCPICKADDICDHTLEQQQMQPLCFNCPICDKIFPATEKQIFEDHVFCHSL [chain 1 V136S, chain 1 G140E], the percent of parent is ~53 % of WT.
Take chain 1 MEETIKDPPTSAVLLDHCHFSQVIFNSVEKFYIPGGDVTCHYTFTQHFIPRRKDWIGIFRVGWKTTREYYTFMWVTLPIDLNNKSAKQQEVQFKAYYLPKDDEYYQFCYVDEDGVVRGASIPFQFRPENEEDILVVTTQEEVEEIEQHNKELCKENQELKDSCISLQKQNSDMQAELQKKQEELETLQSINKKLELKVKEQKDYWETELLQLKEQNQKMSSENEKMGIRVDQLQAQLSTQEKEMEKLVQGDQDKTEQLEQLKKENDHLFLSLTEQRKDQKKLEQTVEQMKQNETTAMKKQQELMDENFDLSKRLSENEIICNALQRQKERLEGENDLLKRENSRLLSYMGLDFNSLPYQVPTSDEGGARQNPGLAYGNPYSGIQESSSPSPLSIKKCPICKADDICDHTLEQQQMQPLCFNCPICDKIFPATEKQIFEDHVFCHSL [chain 1 G140E]: the percent of parent was ~190 % of WT.
The same measure, in the same setting: the figure for chain 1 MEETIKDPPTSAVLLDHCHFSQVIFNSVEKFYIPGGDVTCHYTFTQHFIPRRKDWIGIFRVGWKTTREYYTFMWVTLPIDLNNKSAKQQEVQFKAYYLPKDDEYYQFCYVDEDGVVRGASIPFQFRPENEEDILVSTTQGEVEEIEQHNKELCKENQELKDSCISLQKQNSDMQAELQKKQEELETLQSINKKLELKVKEQKDYWETELLQLKEQNQKMSSENEKMGIRVDQLQAQLSTQEKEMEKLVQGDQDKTEQLEQLKKENDHLFLSLTEQRKDQKKLEQTVEQMKQNETTAMKKQQELMDENFDLSKRLSENEIICNALQRQKERLEGENDLLKRENSRLLSYMGLDFNSLPYQVPTSDEGGARQNPGLAYGNPYSGIQESSSPSPLSIKKCPICKADDICDHTLEQQQMQPLCFNCPICDKIFPATEKQIFEDHVFCHSL [chain 1 V136S] is ~53 % of WT.

In another assay the parent is B1. Kind of assay: co-immunoprecipitation, Western blot densitometry; lysates of SH-SY5Y cells; three independent experiments; blot labelled IP:HA(LC3C); parent: 100; read off a plot.
Regarding chain 1 MEETIKDPPTSAVLLDHCHFSQVIFNSVEKFYIPGGDVTCHYTFTQHFIPRRKDWIGIFRVGWKTTREYYTFMWVTLPIDLNNKSAKQQEVQFKAYYLPKDDEYYQFCYVDEDGVVRGASIPFQFRPENEEDILVVTTQEEVEEIEQHNKELCKENQELKDSCISLQKQNSDMQAELQKKQEELETLQSINKKLELKVKEQKAAAATELLQLKEQNQKMSSENEKMGIRVDQLQAQLSTQEKEMEKLVQGDQDKTEQLEQLKKENDHLFLSLTEQRKDQKKLEQTVEQMKQNETTAMKKQQELMDENFDLSKRLSENEIICNALQRQKERLEGENDLLKRENSRLLSYMGLDFNSLPYQVPTSDEGGARQNPGLAYGNPYSGIQESSSPSPLSIKKCPICKADDICDHTLEQQQMQPLCFNCPICDKIFPATEKQIFEDHVFCHSL [chain 1 G140E, chain 1 D203A, chain 1 Y204A, chain 1 W205A, chain 1 E206A], the percent of parent is ~230 % of WT.
The same measure, in the same setting: the figure for chain 1 MEETIKDPPTSAVLLDHCHFSQVIFNSVEKFYIPGGDVTCHYTFTQHFIPRRKDWIGIFRVGWKTTREYYTFMWVTLPIDLNNKSAKQQEVQFKAYYLPKDDEYYQFCYVDEDGVVRGASIPFQFRPENEEDILVVTTQGEVEEIEQHNKELCKENQELKDSCISLQKQNSDMQAELQKKQEELETLQSINKKLELKVKEQKAAAATELLQLKEQNQKMSSENEKMGIRVDQLQAQLSTQEKEMEKLVQGDQDKTEQLEQLKKENDHLFLSLTEQRKDQKKLEQTVEQMKQNETTAMKKQQELMDENFDLSKRLSENEIICNALQRQKERLEGENDLLKRENSRLLSYMGLDFNSLPYQVPTSDEGGARQNPGLAYGNPYSGIQESSSPSPLSIKKCPICKADDICDHTLEQQQMQPLCFNCPICDKIFPATEKQIFEDHVFCHSL [chain 1 D203A, chain 1 Y204A, chain 1 W205A, chain 1 E206A] is ~130 % of WT.
The same measure, in the same setting: in the case of chain 1 MEETIKDPPTSAVLLDHCHFSQVIFNSVEKFYIPGGDVTCHYTFTQHFIPRRKDWIGIFRVGWKTTREYYTFMWVTLPIDLNNKSAKQQEVQFKAYYLPKDDEYYQFCYVDEDGVVRGASIPFQFRPENEEDILVVTTQEEVEEIEQHNKELCKENQELKDSCISLQKQNSDMQAELQKKQEELETLQSINKKLELKVKEQKDYWETELLQLKEQNQKMSSENEKMGIRVDQLQAQLSTQEKEMEKLVQGDQDKTEQLEQLKKENDHLFLSLTEQRKDQKKLEQTVEQMKQNETTAMKKQQELMDENFDLSKRLSENEIICNALQRQKERLEGENDLLKRENSRLLSYMGLDFNSLPYQVPTSDEGGARQNPGLAYGNPYSGIQESSSPSPLSIKKCPICKADDICDHTLEQQQMQPLCFNCPICDKIFPATEKQIFEDHVFCHSL [chain 1 G140E] it was ~240 % of WT.
